Here are results for one substance from publication PMC6748948, “A Bone Morphogenetic Protein (BMP)-derived Peptide Based on the Type I Receptor-binding Site Modifies Cell-type Dependent BMP Signalling” (Scientific Reports, 2019).

The target in this assay is Peptide P3* (BMP9-based peptide from the ALK1-binding site, biotinylated at the N-terminus) (UniProt Q9UK05). Description: SPR; Biacore T200; biotinylated P3* immobilised on streptavidin (SA) chip; ALK1-Fc flowed over, injection 4 min, otherwise as for the CM5 assays; steady-state fit.
Chain of Peptide P3* (BMP9-based peptide from the ALK1-binding site, biotinylated at the N-terminus) (Q9UK05 320-429): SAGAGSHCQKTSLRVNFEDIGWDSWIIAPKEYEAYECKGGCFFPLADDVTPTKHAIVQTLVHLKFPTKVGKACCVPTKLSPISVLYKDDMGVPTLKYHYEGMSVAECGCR

Chain of ALK1-Fc (activin receptor like kinase 1, Fc fusion) (P37023 22-118): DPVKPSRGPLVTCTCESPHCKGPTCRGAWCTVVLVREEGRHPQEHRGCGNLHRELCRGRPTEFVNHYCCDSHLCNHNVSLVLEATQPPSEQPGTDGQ

In the case of “ALK1-Fc (activin receptor like kinase 1, Fc fusion) (from UniProt P37023 22-118)”, the Kd amounted to 30 mM.
